Key:
human complement C1q [1] = molecular target: T1, human complement C1q (Homo sapiens, UniProt P02745 23-245; P02746 28-253; P02747 29-245); assay: cell-based or functional assay
human complement C1q [2] = molecular target: T1, human complement C1q; assay: Not stated; affinity given in descriptive text

T1 sequence (P02745 23-245 limits assumed, chain 1 of 3): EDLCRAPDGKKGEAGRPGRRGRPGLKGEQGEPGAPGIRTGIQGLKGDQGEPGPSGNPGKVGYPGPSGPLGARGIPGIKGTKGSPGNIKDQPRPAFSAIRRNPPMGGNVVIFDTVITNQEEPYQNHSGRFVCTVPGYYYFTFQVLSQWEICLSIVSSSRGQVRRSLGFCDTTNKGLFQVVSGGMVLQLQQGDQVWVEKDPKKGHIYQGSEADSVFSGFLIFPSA
T1 sequence (P02746 28-253 limits assumed, chain 2 of 3): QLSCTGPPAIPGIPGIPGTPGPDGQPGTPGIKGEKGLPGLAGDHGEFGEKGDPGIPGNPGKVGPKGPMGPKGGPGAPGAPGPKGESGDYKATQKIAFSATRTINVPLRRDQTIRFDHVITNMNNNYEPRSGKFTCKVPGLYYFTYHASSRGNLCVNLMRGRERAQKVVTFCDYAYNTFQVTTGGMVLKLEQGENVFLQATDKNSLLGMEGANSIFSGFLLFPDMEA
T1 sequence (P02747 29-245 limits assumed, chain 3 of 3): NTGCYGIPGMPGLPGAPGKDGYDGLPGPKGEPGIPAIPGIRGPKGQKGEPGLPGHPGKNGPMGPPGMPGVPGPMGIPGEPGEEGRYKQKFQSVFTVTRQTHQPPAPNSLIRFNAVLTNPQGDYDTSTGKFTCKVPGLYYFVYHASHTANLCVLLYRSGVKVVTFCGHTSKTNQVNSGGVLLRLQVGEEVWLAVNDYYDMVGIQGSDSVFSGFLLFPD

IC50 for inhibition of complement deposition (C4 and C3d on human RBCs, flow cytometry) (human complement C1q [1]): ~10 nM
Kd (human complement C1q [2]): 0.01 nM
B1: FabA (anti-C1q antibody Fab fragment) (Fab)
heavy: QVQLVQSGAELKKPGASVKVSCKSSGYHFTSYWMHWVKQAPGQGLEWIGVIHPNSGSINYNEKFESRVTITVDKSTSTAYMELSSLRSEDTAVYYCAGERDSTEVLPMDYWGQGTTVTVSSASTKGPSVFPLAPSSKSTSGGTAALGCLVKDYFPEPVTVSWNSGALTSGVHTFPAVLQSSGLYSLSSVVTVPSSSLGTQTYICNVNHKPSNTKVDKKVEPKSCDKTHT
light: DVQITQSPSSLSASLGERATINCRASKSINKYLAWYQQKPGKAPKLLIYSGSTLQSGIPARFSGSGSGTDFTLTISSLEPEDFAMYYCQQHNEYPLTFGQGTKLEIKRTVAAPSVFIFPPSDEQLKSGTASVVCLLNNFYPREAKVQWKVDNALQSGNSQESVTEQDSKDSTYSLSSTLTLSKADYEKHKVYACEVTHQGLSSPVTKSFNRGEC
notes: Heavy chain Fab fragment truncated after the first constant domain of IgG1; also called anti-C1q Fab; anti-C1q monovalent Fab
IC50 for inhibition of hemolysis (CAD-sensitised human RBCs, normal human serum, absorbance at 415 nM) (human complement C1q [1]): ~10 nM

— patent US20240109957A1 (ANNEXON, published 2024)
